Measurements published in patent publication US7867500B2, “Cofactor that modulates steroid receptor activities” (The United States of America as represented by the …, priority 2004, dated 2011).

Molecular target: T1, GR (Rattus norvegicus, UniProt P06536)
T1 construct: expressed in transfected cells; host or cells: Cos-7
T1 sequence (P06536 1-795): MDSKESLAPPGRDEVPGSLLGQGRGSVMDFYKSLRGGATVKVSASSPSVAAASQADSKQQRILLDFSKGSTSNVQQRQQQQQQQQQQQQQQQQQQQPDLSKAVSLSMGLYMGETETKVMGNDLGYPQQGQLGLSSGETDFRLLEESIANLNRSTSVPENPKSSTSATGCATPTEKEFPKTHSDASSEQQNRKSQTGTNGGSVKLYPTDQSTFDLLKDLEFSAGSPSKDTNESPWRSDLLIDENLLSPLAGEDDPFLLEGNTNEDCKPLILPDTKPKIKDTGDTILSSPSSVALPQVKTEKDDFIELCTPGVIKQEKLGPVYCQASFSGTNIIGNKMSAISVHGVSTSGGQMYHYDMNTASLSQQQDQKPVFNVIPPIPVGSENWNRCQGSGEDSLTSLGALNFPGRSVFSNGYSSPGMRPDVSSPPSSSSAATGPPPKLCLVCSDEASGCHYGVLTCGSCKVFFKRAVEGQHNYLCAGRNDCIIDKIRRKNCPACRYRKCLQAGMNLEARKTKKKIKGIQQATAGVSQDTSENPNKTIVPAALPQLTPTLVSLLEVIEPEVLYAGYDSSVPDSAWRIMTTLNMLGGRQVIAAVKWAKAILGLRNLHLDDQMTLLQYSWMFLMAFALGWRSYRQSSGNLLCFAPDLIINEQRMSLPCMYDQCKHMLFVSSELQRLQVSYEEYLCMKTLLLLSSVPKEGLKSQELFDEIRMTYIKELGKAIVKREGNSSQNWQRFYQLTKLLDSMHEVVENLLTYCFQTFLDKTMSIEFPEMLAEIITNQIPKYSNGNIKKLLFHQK
T1 sequence (Q6EMB2 5-1281 A149V/F1267S partner limits assumed): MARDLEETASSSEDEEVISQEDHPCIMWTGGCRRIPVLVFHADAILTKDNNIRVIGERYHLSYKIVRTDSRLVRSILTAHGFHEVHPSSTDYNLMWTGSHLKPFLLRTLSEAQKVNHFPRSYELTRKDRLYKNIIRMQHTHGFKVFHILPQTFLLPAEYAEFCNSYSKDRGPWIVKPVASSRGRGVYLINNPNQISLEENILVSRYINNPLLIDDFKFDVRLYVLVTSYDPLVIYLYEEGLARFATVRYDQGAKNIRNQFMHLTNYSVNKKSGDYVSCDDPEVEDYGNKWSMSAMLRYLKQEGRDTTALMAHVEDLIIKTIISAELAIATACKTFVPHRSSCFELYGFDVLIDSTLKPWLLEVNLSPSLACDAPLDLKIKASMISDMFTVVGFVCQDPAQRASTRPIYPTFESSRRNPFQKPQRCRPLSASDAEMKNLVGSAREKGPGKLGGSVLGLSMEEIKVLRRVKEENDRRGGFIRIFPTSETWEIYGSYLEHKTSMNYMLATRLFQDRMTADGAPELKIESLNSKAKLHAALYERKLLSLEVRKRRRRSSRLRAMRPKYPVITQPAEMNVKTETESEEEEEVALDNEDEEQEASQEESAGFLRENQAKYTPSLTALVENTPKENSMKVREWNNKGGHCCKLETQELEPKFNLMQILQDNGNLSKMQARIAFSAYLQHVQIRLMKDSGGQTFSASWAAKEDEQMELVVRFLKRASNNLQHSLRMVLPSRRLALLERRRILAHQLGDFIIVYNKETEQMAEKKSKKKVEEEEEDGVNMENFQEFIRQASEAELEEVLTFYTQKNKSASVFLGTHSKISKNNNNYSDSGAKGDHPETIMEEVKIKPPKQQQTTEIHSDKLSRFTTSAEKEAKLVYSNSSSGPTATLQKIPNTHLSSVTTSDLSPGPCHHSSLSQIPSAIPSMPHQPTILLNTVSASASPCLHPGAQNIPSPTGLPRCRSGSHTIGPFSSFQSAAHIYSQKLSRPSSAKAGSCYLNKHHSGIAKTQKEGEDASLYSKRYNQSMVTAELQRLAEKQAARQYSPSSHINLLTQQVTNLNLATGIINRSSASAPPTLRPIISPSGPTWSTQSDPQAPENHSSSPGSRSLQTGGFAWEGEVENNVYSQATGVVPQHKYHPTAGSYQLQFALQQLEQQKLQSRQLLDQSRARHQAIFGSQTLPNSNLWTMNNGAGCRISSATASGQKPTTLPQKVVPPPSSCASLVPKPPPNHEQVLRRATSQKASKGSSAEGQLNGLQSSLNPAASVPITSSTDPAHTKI
Assay: Whole cell co-immunoprecipitation in Cos-7 cells: GR
Assay type: binding
Conditions: EtOH ± 1 μM Dex, 2 hr
Procedure: FIG. 7C1-3 illustrate whole cell co-immunoprecipitation of STAMP, GR, and TIF2/GRIP1. Cos-7 cells that had been co-transfected with Flag/STAMP (or Flag itself), HA/GRIP1, and GR plasmids (10 μg of each/150 mm dish) for 48 hr were treated for 2 hr with EtOH±1 μM Dex before being lysed as described in Example 1. Lysate was either analyzed on SDS-PAGE gels or treated with anti-Flag antibody to immunoprecipitate Flag/STAMP. The pellets were separated on SDS-PAGE gels and Western blotted with anti-Flag (FIG. 7C1), anti-HA (FIG. 7C2), or anti-GR antibodies (FIG. 7C3). In each panel, lane 1=5.7% of input lysate, lane 2=IP pellet of Flag/STAMP, HA/GRIP1, and GR+EtOH, lane 3=IP pellet of Flag/STAMP, HA/GRIP1, and GR+Dex, and lane 4=control IP pellet of Flag, HA/GRIP1, and GR+EtOH. Similar results were obtained in a second experiment.
Immunoprecipitations were conducted as generally described in Wang et al. (2004) Mol. Endocrinol. 18: 1476-95, with slight modifications. The day before transfection, Cos-7 cells were seeded into 150 mm dishes at 200,000 cells per dish containing 20 ml of media. On the next day, about 30 μg of DNA/dish was transfected with 60 μl of FuGene reagent. […]

B1: STAMP: SRC-1 and TIF2 Associated Modulatory Protein, 1277 amino acid human polypeptide, expressed from transfected plasmid (protein)
chain: MARDLEETASSSEDEEVISQEDHPCIMWTGGCRRIPVLVFHADAILTKDNNIRVIGERYHLSYKIVRTDSRLVRSILTAHGFHEVHPSSTDYNLMWTGSHLKPFLLRTLSEAQKVNHFPRSYELTRKDRLYKNIIRMQHTHGFKVFHILPQTFLLPAEYAEFCNSYSKDRGPWIVKPVASSRGRGVYLINNPNQISLEENILVSRYINNPLLIDDFKFDVRLYVLVTSYDPLVIYLYEEGLARFATVRYDQGAKNIRNQFMHLTNYSVNKKSGDYVSCDDPEVEDYGNKWSMSAMLRYLKQEGRDTTALMAHVEDLIIKTIISAELAIATACKTFVPHRSSCFELYGFDVLIDSTLKPWLLEVNLSPSLACDAPLDLKIKASMISDMFTVVGFVCQDPAQRASTRPIYPTFESSRRNPFQKPQRCRPLSASDAEMKNLVGSAREKGPGKLGGSVLGLSMEEIKVLRRVKEENDRRGGFIRIFPTSETWEIYGSYLEHKTSMNYMLATRLFQDRMTADGAPELKIESLNSKAKLHAALYERKLLSLEVRKRRRRSSRLRAMRPKYPVITQPAEMNVKTETESEEEEEVALDNEDEEQEASQEESAGFLRENQAKYTPSLTALVENTPKENSMKVREWNNKGGHCCKLETQELEPKFNLMQILQDNGNLSKMQARIAFSAYLQHVQIRLMKDSGGQTFSASWAAKEDEQMELVVRFLKRASNNLQHSLRMVLPSRRLALLERRRILAHQLGDFIIVYNKETEQMAEKKSKKKVEEEEEDGVNMENFQEFIRQASEAELEEVLTFYTQKNKSASVFLGTHSKISKNNNNYSDSGAKGDHPETIMEEVKIKPPKQQQTTEIHSDKLSRFTTSAEKEAKLVYSNSSSGPTATLQKIPNTHLSSVTTSDLSPGPCHHSSLSQIPSAIPSMPHQPTILLNTVSASASPCLHPGAQNIPSPTGLPRCRSGSHTIGPFSSFQSAAHIYSQKLSRPSSAKAGSCYLNKHHSGIAKTQKEGEDASLYSKRYNQSMVTAELQRLAEKQAARQYSPSSHINLLTQQVTNLNLATGIINRSSASAPPTLRPIISPSGPTWSTQSDPQAPENHSSSPGSRSLQTGGFAWEGEVENNVYSQATGVVPQHKYHPTAGSYQLQFALQQLEQQKLQSRQLLDQSRARHQAIFGSQTLPNSNLWTMNNGAGCRISSATASGQKPTTLPQKVVPPPSSCASLVPKPPPNHEQVLRRATSQKASKGSSAEGQLNGLQSSLNPAASVPITSSTDPAHTKI
**Q.** Which “co-immunoprecipitation of GR with Flag-STAMP by anti-Flag antibody” value does the source give for B1 here?
**A.** Its value is “co-immunoprecipitated”.
